These results are taken from patent publication US5876691A, “Antibody against carcionembryonic antigen (CEA)” (Cancer Research Campaign Technology Limited, priority 1993, dated 1999).

The target of assay [1] is carcinoembryonic antigen (CEA) (human) (UniProt P06731). As to the kind of experiment: summary of the affinity comparison with A5B7.
For assay [2] the target is unchanged. As to the kind of experiment: 125I-labelled scFv applied to a 1 ml CEA/Sepharose column (1 mg CEA).
Assay [3] shares this target. As to the kind of experiment: radiolabelled scFv applied to a CEA coupled Sepharose 4B column, gamma counting.
Assay [4] shares this target. As to the kind of experiment: fluorescence quench, purified soluble scFv.
The target is the same in assay [5]. As to the kind of experiment: radiolabelled control scFv applied to a CEA coupled Sepharose 4B column, gamma counting.
Assay [6] has the same target. As to the kind of experiment: fluorescence quench.
Assay [7] has the same target. As to the kind of experiment: IMAC purified MFE-23 His, 0.5 mg applied to the CEA affinity column after 6 months storage at 4 C.
Assay [8] has the same target. As to the kind of experiment: IMAC purified MFE-23 His, 2 mg applied to the CEA affinity column after 6 months storage at 4 C.
For assay [9] the target is unchanged. As to the kind of experiment: unbound fraction of 125I-MFE-23 His reapplied to the CEA column.
Assay [10] has the same target. As to the kind of experiment: IMAC purified MFE-23 His, 1 mg applied to the CEA affinity column after 6 months storage at 4 C.
The target is the same in assay [11]. As to the kind of experiment: MFE-23 His purified by CEA antigen affinity chromatography, 1 mg applied to the CEA affinity column.
The target is the same in assay [12]. As to the kind of experiment: CEA column, after radiolabelling with 125I.
Assay [13] has the same target. As to the kind of experiment: 125I-labelled scFv applied to a CEA coupled Sepharose 4B column, gamma counting.
For assay [14] the target is unchanged. As to the kind of experiment: 125I-labelled scFv applied to a CEA coupled Sepharose 4B column, gamma counting; total recovered 1710 cpm.
Assay [15] shares this target. As to the kind of experiment: known amount of antibody applied to the CEA affinity column after 6 months storage at 4 C.
For assay [16] the target is unchanged. As to the kind of experiment: CEA affinity column, after 6 months storage at 4 C, compared with MFE-23 His purified on the same column.
For assay [17] the target is unchanged. As to the kind of experiment: 99mTc-labelled MFE-cys applied to a 1 ml CEA/Sepharose column (1 mg CEA), bound material eluted with 3M ammoniumthiocyanate.

As for “MFE-23 soluble scFv linked to a C-terminal myc tag”, the fold affinity against A5B7 in assay [1] stood at 10 times. In [2], this substance registered a percent of counts recovered of 38.7%. In addition, in assay [3], the counts bound to the column worked out at 23000 cpm and the percent of recovered counts bound to the column is 56%. Besides, in assay [4], the dissociation constant (Kd) (usually the free concentration of one partner at which half of the binding sites on the other are occupied at equilibrium, for simple one-to-one binding) is 2.5 nM.

In [5], control scFv B1.8 gave a counts bound to the column of 1300 cpm and a percent of recovered counts bound to the column of 10%.

Take “A5-SC (scFv derived from monoclonal antibody A5B7)”: the percent of counts recovered in assay [2] was found to be 30.8%.

A5B7 monoclonal anti-CEA antibody had a dissociation constant (Kd) in assay [6] of 25 nM.

Consider “MFE-23 His (MFE-23 scFv containing 6xHis at the C-terminus)”, for which the Bound was 0.4 mg in assay [7], 0.76 mg in [8], 0.68 mg in assay [10] and 0.83 mg in assay [11]. The Specific activity (%) stood at 81% in assay [7], 69% in assay [8], 75% in assay [10] and 89% in assay [11]. This substance also gave a percent of loaded counts in the bound fraction on reapplication in assay [9] of 58%. Further, the results for the antigen binding retained in assay [12] and in assay [16] were above 75% and 84%, respectively. Also, the percent of recovered counts in the bound fraction in assay [13] was determined as 75%. In addition, the counts in the bound fraction in [14] was found to be 1280 cpm. In assay [15], this substance yielded a mean % bound specific activity of 75%.

MFE-cys (cysteine-tagged MFE-23 scFv) yielded a percent of counts recovered in the bound fraction in [17] of 55%.
